# Laboratory results from paper PMC3753628, “Recognition and processing of double-stranded DNA by ExoX, a distributive 3′–5′ exonuclease”.
# T1: ExoX (NT167) (Escherichia coli K12, UniProt P0AEK0 1-167)
# T1 sequence: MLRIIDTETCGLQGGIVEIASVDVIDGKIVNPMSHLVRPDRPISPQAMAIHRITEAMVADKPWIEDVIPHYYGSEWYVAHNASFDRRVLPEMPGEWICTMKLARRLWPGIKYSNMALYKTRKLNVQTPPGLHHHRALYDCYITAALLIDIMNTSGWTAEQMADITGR
# B1: 12 bp blunt-ended dsDNA (complex II) (dsDNA)
# DNA 1: CTCGAATCTACA
# DNA 2: TGTAGATTCGAG
# B2: 3' overhanging dsDNA (complex I) (dsDNA)
# DNA 1: CGGATCCACAATGACCT
# DNA 2: GTCATTGTGGATCCGAG
# B3: 3' recessed mismatch-containing dsDNA (complex III) (dsDNA)
# DNA 1: GTCATTGTGGATCCGAG
# DNA 2: GTCATTGTGGATCCGAG
# Tests used:
# ExoX (NT167) [1] = target: T1, ExoX (NT167); assay: X-ray crystallography; 2 ExoX monomers per DNA; metal at MeA site; Crystals by hanging drop, 16 C: complex I 0.1 M Tris-HCl pH 8.0, 0.2 M NaCl, 20% PEG 3350; complexes II and III 0.1 M MES pH 6.3, 17% PEG 6000; protein:DNA 1:0.6, 30 min at 4 C, gel filtration; conditions: protein: recombinant; (pET24a, Ni-NTA); chain copies: 2; blunt
# ExoX (NT167) [2] = target: T1, ExoX (NT167); assay: X-ray crystallography; two undefined metal ions (MeA, MeB), probably inactive (Ni2+ or Na+); SeMet ExoX; 2:1 protein:DNA; Crystals by hanging drop, 16 C: complex I 0.1 M Tris-HCl pH 8.0, 0.2 M NaCl, 20% PEG 3350; complexes II and III 0.1 M MES pH 6.3, 17% PEG 6000; protein:DNA 1:0.6, 30 min at 4 C, gel filtration; conditions: protein: recombinant; (pET24a, Ni-NTA; chain copies: 2; text says 17 bp)
# ExoX (NT167) [3] = target: T1, ExoX (NT167); assay: X-ray crystallography; Crystals by hanging drop, 16 C: complex I 0.1 M Tris-HCl pH 8.0, 0.2 M NaCl, 20% PEG 3350; complexes II and III 0.1 M MES pH 6.3, 17% PEG 6000; protein:DNA 1:0.6, 30 min at 4 C, gel filtration; conditions: protein: recombinant; (pET24a, Ni-NTA); chain copies: 2; self-annealed, 2 copies of S2; 5' overhang 5 nt, mispaired 3' terminal nucleotides
binder,measurement,setting,value
B1,binding result,ExoX (NT167) [1],binds
B2,binding result,ExoX (NT167) [2],binds
B3,binding result,ExoX (NT167) [3],binds
